± gives the standard deviation of the averaged measurements.
Test: total protein half-life in vivo (active degradation + dilution); higher = more stable protein
[1] = E. coli NCM3722 delta-clpP delta-lon delta-hslV, growth: N-lim chemostat, doubling time 6 h
[2] = E. coli NCM3722 delta-clpP, growth: N-lim chemostat, doubling time 6 h
[3] = E. coli NCM3722 delta-hslV, growth: N-lim chemostat, doubling time 6 h
[4] = E. coli NCM3722 delta-lon, growth: N-lim chemostat, doubling time 6 h
[5] = E. coli NCM3722 delta-smpB, growth: N-lim chemostat, doubling time 6 h
[6] = wild type E. coli NCM3722, growth: C-lim chemostat, doubling time 3 h
[7] = wild type E. coli NCM3722, growth: C-lim chemostat, doubling time 6 h
[8] = wild type E. coli NCM3722, growth: C-lim chemostat, doubling time 12 h
[9] = wild type E. coli NCM3722, growth: N-lim chemostat, doubling time 6 h
[10] = wild type E. coli NCM3722, growth: N-lim chemostat, doubling time 12 h
[11] = wild type E. coli NCM3722, growth: P-lim chemostat, doubling time 6 h
[12] = wild type E. coli NCM3722, growth: P-lim chemostat, doubling time 12 h

Sequence | total protein half-life in vivo [1] [h] | total protein half-life in vivo [2] [h] | total protein half-life in vivo [3] [h] | total protein half-life in vivo [4] [h] | total protein half-life in vivo [5] [h] | total protein half-life in vivo [6] [h] | total protein half-life in vivo [7] [h] | total protein half-life in vivo [8] [h] | total protein half-life in vivo [9] [h] | total protein half-life in vivo [10] [h] | total protein half-life in vivo [11] [h] | total protein half-life in vivo [12] [h]
MLAKRIIPCLDVRDGQVVKGVQFRNHEIIGDIVPLAKRYAEEGADELVFYDITASSDGRVVDKSWVSRVAEVIDIPFCVAGGIKSLEDAAKILSFGADKISINSPALADPTLITRLADRFGVQCIVVGIDTWYDAETGKYHVNQYTGDESRTRVTQWETLDWVQEVQKRGAGEIVLNMMNQDGVRNGYDLEQLKKVREVCHVPLIASGGAGTMEHFLEAFRDADVDGALAASVFHKQIINIGELKAYLATQGVEIRIC | 4.98 ± 0.68 | 4.15 ± 0.38 | 4.45 ± 0.13 | 4.83 ± 0.12 | 4.317 ± 0.0095 | 2.97 ± 0.2 | 5.53 ± 0.17 | 9.44 ± 0.28 | 4.34 ± 0.0084 | 7.26 ± 0.56 | 5.64 ± 0.13 | 11.6 ± 0.42
MLAQLTISNFAIVRELEIDFHSGMTVITGETGAGKSIAIDALGLCLGGRAEADMVRTGAARADLCARFSLKDTPAALRWLEENQLEDGHECLLRRVISSDGRSRGFINGTAVPLSQLRELGQLLIQIHGQHAHQLLTKPEHQKFLLDGYANETSLLQEMTARYQLWHQSCRDLAHHQQLSQERAARAELLQYQLKELNEFNPQPGEFEQIDEEYKRLANSGQLLTTSQNALALMADGEDANLQSQLYTAKQLVSELIGMDSKLSGVLDMLEEATIQIAEASDELRHYCDRLDLDPNRLFELEQRISKQISLARKHHVSPEALPQYYQSLLEEQQQLDDQADSQETLALAVTKHHQQALEIARALHQQRQQYAEELAQLITDSMHALSMPHGQFTIDVKFDEHHLGADGADRIEFRVTTNPGQPMQPIAKVASGGELSRIALAIQVITARKMETPALIFDEVDVGISGPTAAVVGKLLRQLGESTQVMCVTHLPQVAGCGHQHYFVSKETDGAMTETHMQSLNKKARLQELARLLGGSEVTRNTLANAKELLAA | 5.03 ± 0.093 | 3.53 ± 0.12 |  |  |  |  |  |  |  |  |  | 2.48
MLARGKTNLKIEEIRMHKHHEIHRVKPLMPALCRIRQGKKVINWETHTLTVDNNQIILFPCGYEFYIENYPEAGLYLAEMLYLPIDLIESFQKLYTVTDQIRNKTSFFLPQNPELIYCWEQLKTSVSRGFSTKIQEHLAMGVLLSLGVNHVNHLLLSYSKQSLISRCYNLLLSEPGTKWTANKVARYLYISVSTLHRRLASEGVSFQSILDDVRLNNALSAIQTTVKPISEIARENGYKCPSRFTERFHNRFNITPREIRKASRE | 5.01 ± 0.22 | > 8 |  |  | 3.44 ± 0.094 | 2 ± 0.38 | 3.83 ± 0.19 | 6.07 ± 1.8 | 4.12 ± 0.23 | 7.29 ± 0.94 | 3.65 ± 1.5 | 5.86 ± 1.1
MLDLFKAIGLGLVVLLPLANPLTTVALFLGLAGNMNSAERNRQSLMASVYVFAIMMVAYYAGQLVMDTFGISIPGLRIAGGLIVAFIGFRMLFPQQKAIDSPEAKSKSEELEDEPSANIAFVPLAMPSTAGPGTIAMIISSASTVRQSSTFADWVLMVAPPLIFFLVAVILWGSLRSSGAIMRLVGKGGIEAISRLMGFLLVCMGVQFIINGILEIIKTYH [P0AEY1] |  | 6.57 ± 0.74 | 5.91 | 6.14 ± 0.6 | 6.12 ± 0.25 |  | 5.73 ± 0.56 | 11.1 ± 0.56 |  | 10.7 | 6.23 ± 0.11 | 13 ± 1
MLELLYTALLYLIQPLIWIRLWVRGRKAPAYRKRWGERYGFYRHPLKPGGIMLHSVSVGETLAAIPLVRALRHRYPDLPITVTTMTPTGSERVQSAFGKDVQHVYLPYDLPDALNRFLNKVDPKLVLIMETELWPNLIAALHKRKIPLVIANARLSARSAAGYAKLGKFVRRLLRRITLIAAQNEEDGARFVALGAKNNQVTVTGSLKFDISVTPQLAAKAVTLRRQWAPHRPVWIATSTHEGEESVVIAAHQALLQQFPNLLLILVPRHPERFPDAINLVRQAGLSYITRSSGEVPSTSTQVVVGDTMGELMLLYGIADLAFVGGSLVERGGHNPLEAAAHAIPVLMGPHTFNFKDICARLEQASGLITVTDATTLAKEVSSLLTDADYRSFYGRHAVEVLYQNQGALQRLLQLLEPYLPPKTH [P0AC75] | 5.95 ± 0.12 | 6.64 ± 0.62 | 6.5 ± 0.35 | 6.08 ± 0.49 | 6.219 ± 0.038 | 3.23 ± 0.044 | 6.2 ± 0.5 | 10.6 ± 1.9 | 6.524 ± 0.011 | 13.7 ± 1.2 | 6.317 ± 0.014 | 11.9 ± 0.48
MLERLSWKRLVLELLLCCLPAFILGAFFGYLPWFLLASVTGLLIWHFWNLLRLSWWLWVDRSMTPPPGRGSWEPLLYGLHQMQLRNKKRRRELGNLIKRFRSGAESLPDAVVLTTEEGGIFWCNGLAQQILGLRWPEDNGQNILNLLRYPEFTQYLKTRDFSRPLNLVLNTGRHLEIRVMPYTHKQLLMVARDVTQMHQLEGARRNFFANVSHELRTPLTVLQGYLEMMNEQPLEGAVREKALHTMREQTQRMEGLVKQLLTLSKIEAAPTHLLNEKVDVPMMLRVVEREAQTLSQKKQTFTFEIDNGLKVSGNEDQLRSAISNLVYNAVNHTPEGTHITVRWQRVPHGAEFSVEDNGPGIAPEHIPRLTERFYRVDKARSRQTGGSGLGLAIVKHAVNHHESRLNIESTVGKGTRFSFVIPERLIAKNSD | 6.39 ± 0.09 | 6.38 ± 0.28 | 5.95 ± 1.3 |  | 6.31 ± 0.26 | 3.118 ± 0.019 | 5.82 ± 0.35 | 12.3 ± 1.7 | 6.4435 ± 0.0015 | 12.7 ± 2 | 6.19 ± 0.21 | 12.2 ± 0.24
MLHPRARTMLLLSLPAVAIGIASSLILIVVMKIASVLQNLLWQRLPGTLGIAQDSPLWIIGVLTLTGIAVGLVIRFSQGHAGPDPACEPLIGAPVPPSALPGLIVALILGLAGGVSLGPEHPIMTVNIALAVAIGARLLPRVNRMEWTILASAGTIGALFGTPVAAALIFSQTLNGSSEVPLWDRLFAPLMAAAAGALTTGLFFHPHFSLPIAHYGQMEMTDILSGAIVAAIAIAAGMVAVWCLPRLHAMMHQMKNPVLVLGIGGFILGILGVIGGPVSLFKGLDEMQQMVANQAFSTSDYFLLAVIKLAALVVAAASGFRGGRIFPAVFVGVALGLMLHEHVPAVPAAITVSCAILGIVLVVTRDGWLSLFMAAVVVPNTTLLPLLCIVMLPAWLLLAGKPMMMVNRPKQQPPHDNV |  | 6.28 | 7.8 | 5.98 |  |  |  | 11.1 | 6.78 | 12.5 |  | > 16
MLHTANPVIKHKAGLLNLAEELSNVSKACKIMGVSRDTFYRYRELVAEGGVDAQINRSRRAPNLKNRTDEATEQAVVDYAVAFPTHGQHRASNELRKQGVFISDSGVRSVWLLHNLENLKRRY | 5.09 ± 0.95 |  |  |  |  |  |  |  |  |  |  | 
MLILISPAKTLDYQSPLTTTRYTLPELLDNSQQLIHEARKLTPPQISTLMRISDKLAGINAARFHDWQPDFTPANARQAILAFKGDVYTGLQAETFSEDDFDFAQQHLRMLSGLYGVLRPLDLMQPYRLEMGIRLENARGKDLYQFWGDIITNKLNEALAAQGDNVVINLASDEYFKSVKPKKLNAEIIKPVFLDEKNGKFKIISFYAKKARGLMSRFIIENRLTKPEQLTGFNSEGYFFDEDSSSNGELVFKRYEQR [P0A8I3] | 2.9 ± 0.42 | 2.57 ± 0.31 | 2.665 ± 0.025 | 3.07 ± 0.18 | 2.63 ± 0.37 | 2.66 ± 0.069 | 3.57 ± 0.5 | 6.32 ± 0.39 | 2.53 ± 0.26 | 3.4738 ± 0.0021 | 3.39 ± 0.057 | 6.11 ± 0.75
MLILLGYLVVLGTVFGGYLMTGGSLGALYQPAELVIIAGAGIGSFIVGNNGKAIKGTLKALPLLFRRSKYTKAMYMDLLALLYRLMAKSRQMGMFSLERDIENPRESEIFASYPRILADSVMLDFIVDYLRLIISGHMNTFEIEALMDEEIETHESEAEVPANSLALVGDSLPAFGIVAAVMGVVHALGSADRPAAELGALIAHAMVGTFLGILLAYGFISPLATVLRQKSAETSKMMQCVKVTLLSNLNGYAPPIAVEFGRKTLYSSERPSFIELEEHVRAVKNPQQQTTTEEA |  |  |  |  |  | 1.32 ± 0.061 | 1.57 | 2.1 |  |  |  | 
MLINIGRLLMLCVWGFLILNLVHPFPRPLNIFVNVALIFTVLMHGMQLALLKSTLPKDGPQMTTAEKVRIFLFGVFELLAWQKKFKVKK | 6.84 |  | 7.72 | 6.85 | 6.18 | 3.25 |  |  | 4.21 |  | 6.22 | 12.6
MLIPWQDLSPETLENLIESFVLREGTDYGEHERTLEQKVADVKRQLQCGEAVLVWSELHETVNIMPRSQFRE | 5.2 | 3.21 |  | 4.14 |  |  | 3.93 |  |  |  | 4.61 | 7.98
MLIRVEIPIDAPGIDALLRRSFESDAEAKLVHDLREDGFLTLGLVATDDEGQVIGYVAFSPVDVQGEDLQWVGMAPLAVDEKYRGQGLARQLVYEGLDSLNEFGYAAVVTLGDPALYSRFGFELAAHHDLRCRWPGTESAFQVHRLADDALNGVTGLVEYHEHFNRF | 5.29 ± 0.2 | 4.46 ± 0.13 | 4.22 ± 0.15 | 4.44 ± 0.37 | 3.73 ± 0.17 | 3.02 ± 0.3 |  | 9.91 ± 0.78 | 4.51 ± 0.72 | 7.82 ± 0.18 | 5.72 ± 0.43 | 11.7 ± 0.65
MLKFILRRCLEAIPTLFILITISFFMMRLAPGSPFTGERTLPPEVMANIEAKYHLNDPIMTQYFSYLKQLAHGDFGPSFKYKDYSVNDLVASSFPVSAKLGAAAFFLAVILGVSAGVIAALKQNTKWDYTVMGLAMTGVVIPSFVVAPLLVMIFAIILHWLPGGGWNGGALKFMILPMVALSLAYIASIARITRGSMIEVLHSNFIRTARAKGLPMRRIILRHALKPALLPVLSYMGPAFVGIITGSMVIETIYGLPGIGQLFVNGALNRDYSLVLSLTILVGALTILFNAIVDVLYAVIDPKIRY [P0AFH2] | 6.19 ± 0.36 | 6.06 ± 0.43 | 6.31 ± 0.27 | 4.86 ± 1.2 | 5.88 ± 0.32 | 2.81 ± 0.28 | 5.75 ± 0.39 | 13.4 ± 3.6 | 4.92 ± 1.4 | 13.5 | 5.69 ± 1.4 | 9.81 ± 1.4
MLKFIQNNREITALLAVVLLFVLPGFLDRQYLSVQTLTMVYSSAQILILLAMGATLVMLTRNIDVSVGSITGMCAVLLGMLLNAGYSLPVACVATLLLGLLAGFFNGVLVAWLKIPAIVATLGTLGLYRGIMLLWTGGKWIEGLPAELKQLSAPLLLGVSAIGWLTIILVAFMAWLLAKTAFGRSFYATGDNLQGARQLGVRTEAIRIVAFSLNGCMAALAGIVFASQIGFIPNQTGTGLEMKAIAACVLGGISLLGGSGAIIGAVLGAWFLTQIDSVLVLLRIPAWWNDFIAGLVLLAVLVFDGRLRCALERNLRRQKYARFMTPPPSVKPASSGKKREAA |  |  |  |  |  | 3.42 | 5.06 ± 1.6 | 7.51 ± 1.3 |  |  |  | 
MLKIIRAGMYTTVQDGGRHGFRQSGISHCGALDMPALRIANLLVGNDANAPALEITLGQLTVEFETDGWFALTGAGCEARLDDNAVWTGWRLPMKAGQRLTLKRPQHGMRSYLAVAGGIDVPPVMGSCSTDLKVGIGGLEGRLLKDGDRLPIGKSKRDSMEAQGVKQLLWGNRIRALPGPEYHEFDRASQDAFWRSPWQLSSQSNRMGYRLQGQILKRTTDRELLSHGLLPGVVQVPHNGQPIVLMNDAQTTGGYPRIACIIEADMYHLAQIPLGQPIHFVQCSLEEALKARQDQQRYFEQLAWRLHNEN | 5.37 ± 0.055 | 5.3 ± 0.29 | 5.076 ± 0.012 | 5.07 ± 0.35 | 4.88 ± 0.36 | 3.12 ± 0.1 | 5.73 ± 0.14 | 10.1 ± 0.82 | 5.25 ± 0.34 | 8.94 ± 0.26 | 5.79 ± 0.12 | 11.26 ± 0.079

Reference: the supplement of paper PMC11246515
